Earlier results on two substances are cited in article PMC4540119.

What is called Kd is the equilibrium constant for the complex coming apart.

For series [1], the target named is integrin α6β1 (Homo sapiens) (UniProt P23229).
Series [2] shares this target. This is another data set of the same source.

Read-outs that look alike come from different tables or passages of the source.

Chain of UniProt P23229 (P23229 24-1050, chain 1 of 2): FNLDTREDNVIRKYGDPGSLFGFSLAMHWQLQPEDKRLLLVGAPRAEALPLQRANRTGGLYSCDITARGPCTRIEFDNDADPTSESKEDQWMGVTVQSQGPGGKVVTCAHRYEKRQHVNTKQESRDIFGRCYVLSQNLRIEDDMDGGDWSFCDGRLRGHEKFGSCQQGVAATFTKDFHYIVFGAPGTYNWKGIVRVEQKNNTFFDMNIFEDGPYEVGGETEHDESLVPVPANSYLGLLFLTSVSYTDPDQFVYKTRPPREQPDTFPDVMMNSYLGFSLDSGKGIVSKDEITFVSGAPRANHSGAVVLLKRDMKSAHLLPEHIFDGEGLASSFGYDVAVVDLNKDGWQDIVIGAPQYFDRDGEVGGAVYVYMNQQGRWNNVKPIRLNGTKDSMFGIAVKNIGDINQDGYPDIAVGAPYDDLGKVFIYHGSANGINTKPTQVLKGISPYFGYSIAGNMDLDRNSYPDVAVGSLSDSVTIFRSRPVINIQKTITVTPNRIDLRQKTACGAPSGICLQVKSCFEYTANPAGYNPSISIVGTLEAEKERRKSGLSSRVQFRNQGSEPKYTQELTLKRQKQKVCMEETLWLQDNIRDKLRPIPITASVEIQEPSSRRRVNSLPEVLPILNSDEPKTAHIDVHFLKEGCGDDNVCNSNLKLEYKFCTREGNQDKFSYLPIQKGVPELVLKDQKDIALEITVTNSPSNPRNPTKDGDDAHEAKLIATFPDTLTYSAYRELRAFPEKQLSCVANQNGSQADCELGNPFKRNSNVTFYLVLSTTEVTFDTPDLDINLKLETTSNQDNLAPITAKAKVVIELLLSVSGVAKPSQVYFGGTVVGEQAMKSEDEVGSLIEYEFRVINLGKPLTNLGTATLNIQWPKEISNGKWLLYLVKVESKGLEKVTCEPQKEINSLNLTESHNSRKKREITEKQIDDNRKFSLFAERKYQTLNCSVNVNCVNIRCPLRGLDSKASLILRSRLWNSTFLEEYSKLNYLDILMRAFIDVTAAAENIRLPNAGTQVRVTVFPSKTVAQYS
Chain of UniProt P23229 (P05556 21-728, chain 2 of 2, further chain): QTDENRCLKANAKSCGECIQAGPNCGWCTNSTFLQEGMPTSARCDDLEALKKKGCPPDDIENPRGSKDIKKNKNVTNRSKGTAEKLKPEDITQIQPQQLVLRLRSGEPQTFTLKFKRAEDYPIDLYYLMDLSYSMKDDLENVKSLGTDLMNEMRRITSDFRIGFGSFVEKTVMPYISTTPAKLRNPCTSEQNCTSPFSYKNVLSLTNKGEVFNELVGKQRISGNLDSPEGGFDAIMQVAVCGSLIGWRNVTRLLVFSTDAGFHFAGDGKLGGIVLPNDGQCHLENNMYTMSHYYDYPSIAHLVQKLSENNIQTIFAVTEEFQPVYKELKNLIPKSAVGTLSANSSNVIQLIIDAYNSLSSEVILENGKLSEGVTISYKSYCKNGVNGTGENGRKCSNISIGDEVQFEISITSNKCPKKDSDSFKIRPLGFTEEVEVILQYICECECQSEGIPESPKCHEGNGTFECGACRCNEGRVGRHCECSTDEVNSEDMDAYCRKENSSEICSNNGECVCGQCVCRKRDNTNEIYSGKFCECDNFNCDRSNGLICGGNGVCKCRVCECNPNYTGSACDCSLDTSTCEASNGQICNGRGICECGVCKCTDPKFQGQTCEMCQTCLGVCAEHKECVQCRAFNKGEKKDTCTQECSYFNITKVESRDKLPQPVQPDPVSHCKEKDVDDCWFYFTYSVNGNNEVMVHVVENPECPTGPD

In the case of laminin-521 (from UniProt O15230), the Kd in series [1] was 0.72 nM.

On to laminin-111 (from UniProt P25391), for which the Kd in series [2] is 9.5 nM.
